From patent US12508302B2, “Pharmaceutical composition providing mucolytic effect” (FRIMLINE PRIVATE LIMITED, priority 2022, dated 2025)

Tested on: tracheobronchial secretion in rats
Assay: Mucolytic activity in rats: tracheobronchial secretion of fluorescein sodium (FINa)
Assay type: in vivo, rat (Swiss Albino Rats)
Settings: for Percentage (%) Enhancement of FINa secretion compared to Normal: versus normal group (G1)
Protocol: The effect of the compositions of the present invention was studied in animals. For this study, screening effect of synergistic combination of compositions/formulations comprising N-Acetyl-L-Cysteine, Lactoferrin and additional active ingredients for mucolytic activity in rat was performed. The following trials were carried out:
Eighty-Four (84) rats including male and female (Swiss Albino Rats) divided into 14 groups (6 per group) were maintained in animal house in a light/dark atmosphere based on a 12 hour cycle having temperature and relative humidity in the range of 19 to 25±2° C. and 30-70%, respectively. To maintain the appropriate conditions, temperature and relative humidity were recorded three times daily. All animals were acclimatized for a minimum period of five days. Animals were maintained in the test setup for minimum 30 minutes once during the acclimatization period to reduce the stress. Animals were weighed on the day of receipt and observed daily for abnormalities if any. Detailed records of acclimatization were also maintained. Rats were housed 3 per cage in clean, sterilized Polypropylene cages. During complete experiments, animals were supplied with the standard certified rat pellet feed and drinking water treated by reverse osmosis ad libitum.
In order to evaluate the mucolytic activity in rats, eighty-four (84) rats were screened and divided into Fourteen (14) groups. For a comparative analysis, groups were divided and treated as below:
Tracheobronchial secretion in rats, expressed by the amount of fluorescein sodium (FINa) dye excreted into the respiratory tract, was measured by modification of methods published earlier.
Lactoferrin, Carotenoid, N-Acetyl-L-Cysteine or their combinations (G4-G14) were suspended in 1% Acacia. […]
The tracheobronchial lavage fluid (4.9±0.1 ml) was centrifuged (3500 rpm for 10 minutes) and the supernatant was transferred to STP B & L tubes. The fluorescence intensity of the supernatant was measured with a Genesys 20 spectrophotometer set at a wavelength of 510 nm (emission).

B1: Lactoferrin (protein, UniProt P02788 20-710, looked up)
Lactotransferrin: GRRRSVQWCAVSQPEATKCFQWQRNMRKVRGPPVSCIKRDSPIQCIQAIAENRADAVTLDGGFIYEAGLAPYKLRPVAAEVYGTERQPRTHYYAVAVVKKGGSFQLNELQGLKSCHTGLRRTAGWNVPIGTLRPFLNWTGPPEPIEAAVARFFSASCVPGADKGQFPNLCRLCAGTGENKCAFSSQEPYFSYSGAFKCLRDGAGDVAFIRESTVFEDLSDEAERDEYELLCPDNTRKPVDKFKDCHLARVPSHAVVARSVNGKEDAIWNLLRQAQEKFGKDKSPKFQLFGSPSGQKDLLFKDSAIGFSRVPPRIDSGLYLGSGYFTAIQNLRKSEEEVAARRARVVWCAVGEQELRKCNQWSGLSEGSVTCSSASTTEDCIALVLKGEADAMSLDGGYVYTAGKCGLVPVLAENYKSQQSSDPDPNCVDRPVEGYLAVAVVRRSDTSLTWNSVKGKKSCHTAVDRTAGWNIPMGLLFNQTGSCKFDEYFSQSCAPGSDPRSNLCALCIGDEQGENKCVPNSNERYYGYTGAFRCLAENAGDVAFVKDVTVLQNTDGNNNEAWAKDLKLADFALLCLDGKRKPVTEARSCHLAMAPNHAVVSRMDKVERLKQVLLHQQAKFGRNGSDCPDKFCLFQSETKNLLFNDNTECLARLHGKTTYEKYLGPQYVAGITNLKKCSTSPLLEACEFLRK
notes: multifunctional globular glycoprotein of the transferrin family, molecular mass about 80 kDa
Fluorescein Sodium (FINa) Secretion (dosed 30 minutes before i.v. FINa 300 mg/kg, tracheobronchial lavage one hour after administration, doses as Table 1, mean±SEM): 1.79 ± 0.04 μg/100 g/h | Percentage (%) Enhancement of FINa secretion compared to Normal (doses as Table 1): 25.17 ± 1% | Percentage (%) Enhancement of FINa secretion compared to Normal (doses as Table 1, listed as Lactoferrin): 25.17%
